Source: IntAct's records for PubMed 14675534

B1: Partitioning defective protein 3 (Caenorhabditis elegans), Q17353 (parent)
chain: MSASSTSSSSTSCPEGGEPSGSCKSSDEGESTLKKRMQQYGIASGYANSSISTLDRSQYQSLPLNGTRRVTVQFGRMKIVVPWKESDQTVGQLADAALLRYKKARGMANEDRIHVHRLECASDGGILDMDDVLEEVFDLNYDQILAITDEANGGSTTPTYSQIQKQQHHYAQPLPYARKFDGGPSTPIASAFGSVTVNHQAHRAASPYNVGFARSNSRDFAPQPTHSKERRDSVVEVSSFDQIPQSGLRVSTPKPSRQSEDVIDGKPMNQPILRSSLRTEASGSRTEEATPVKQSRVTLSPEVEKKLAEQDERKSERRKHYDKNPGRFARGSDRKSRITDALLDARDRIADQLESQNPAEETKSQMIRVKIDQGPMPGTSLVTFPPIPEKSENEKQLGIEVNAVFDESSELPGTSEPTKLSSVQIMKIEDGGRIAKDGRIRVGDCIVAIDGKPVDQMSIIRVRASISDLAAVTSRPVTLIINRSLESFLEQESSAKPIQSALQQANTQYIGHTTVVELIKSSNGFGFTVTGRETAKGERLFYIGTVKPYGVALGHLKSGDRLLEINGTPTGQWTQSEIVEKLKETMVGEKIKFLVSRVSQSAIMSTSASSENKENEETLKVVEEEKIPQKLPLPALMTPPVPKDTPALSPSGASRFEIVIPFINGSSSAGLGVSLKARVSKKSNGSKVDCGIFIKNVMHGGAAFKEGGLRVDDRIVGVEDIDLEPLDNREAQAALAKKLKEVGMISSNVRLTISRYNECNPGQISRDLSRITVDASSPSPSSRMSSHTAPDSLLPSPATRGTSSSGADSSHSRQSSASSAVPAVPARLTERDSIVSDGTSRNDESELPDSADPFNREGLGRKSLSEKRGMGAAADPQHIKLFQDIKHQRQNSAPTSSTQKRSKSQPRSSSQRNYRSPMKLVDLPTTAAASASTNSQNLDDSDMLNRRSQSMESINRPVESILRGTGQIPTGSSSKVQFMQAASPDQHPFPPGAALLRLKNEESRSRDKSRRKSMGNPFSAMRNFFGFGSKSRDASPEKTPTESVQLRSVERPKSIIDERNNGSSERAPPPLPPHQSQRRGSGGNVFVDYGEPYGLIPQYPHNTTSGYESYADSELYDRYAAHRYHPRGGPIIDEDEYIYRQQSTSGNSPINTSSYVNYGLPASNAYHVGSRIPPQTSSGSISKTSGAMRRVYPAEYDEDVAYHQQIPQQSTRYQQGSGSGRGNADYHHMFNSWFAYTGGGAVGAAPVIKSSYGSSPVRIAAASAIERGESFVVEPVSGSSASATDRRGRSTSSGAVASGSSSTGFQYAAKEKYADARSGKFNGGSTRLFIPRHGGGLSAAAFATNFGGEAYETRGGGAGGSPSQYRRRDQGPPHRFPQY
partner: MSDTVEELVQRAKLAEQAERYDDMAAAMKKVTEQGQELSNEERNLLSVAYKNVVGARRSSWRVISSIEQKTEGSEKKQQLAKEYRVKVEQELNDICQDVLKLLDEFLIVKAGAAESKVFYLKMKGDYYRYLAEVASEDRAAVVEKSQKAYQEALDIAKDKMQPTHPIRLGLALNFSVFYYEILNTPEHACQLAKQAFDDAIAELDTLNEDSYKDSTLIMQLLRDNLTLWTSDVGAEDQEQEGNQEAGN

Variants of: B1
Conditions: with 14331_caeel par-5, P41932

Row | effect of a mutation on the interaction | Variant
1 | decreasing interaction | S960A
